First the molecules themselves.
B1: IL-10R-Ig (Fc fusion, UniProt Q13651 22-235, looked up)
chain: HGTELPSPPSVWFEAEFFHHILHWTPIPNQSESTCYEVALLRYGIESWNSISNCSQTLSYDLTAVTLDLYHSNGYRARVRAVDGSRHSNWTVTNTRFSVDEVTLTVGSVNLEIHNGFILGKIQLPRPKMAPANDTYESIFSHFREYEIAIRKVPGNFTFTHKKVKHENFSLLTSGEVGEFCVQVKPSVASRSNKGMWSKEECISLTRQYFTVTN
notes: Control; Used as supernatant of cells transfected with IL-10R-Ig fusion cDNA; The construct is not described; also called IL-10R-Ig fusion; not shown: Ig part of the control fusion is not described
B4: LICR-2-Ig (Fc fusion, murine)
chain: RPRLAPPQNVTLLSQNFSVYLTWLPGLGNPQDVTYFVAYQSSPTRRRWREVEECAGTKELLCSMMCLKKQDLYNKFKGRVRTVSPSSKSPWVESEYLDYLFEVEPAPPVLVLTQTEEILSANATYQLPPCMPPLDLKYEVAFWKEGAGNKTLFPVTPHVTPHGQPVQITLQPAASEHHCLSARTIYTFSVPKYSKFSKPTCFLLEVPEPRIPKPSTPPGSSCPPGNILGGPSVFIFPPKPKDALMISLTPKVTCVVVDVSEDDPDVHVSWFVDNKEVHTAWTQPREAQYNSTFRVVSALPIQHQDWMRGKEFKCKVNNKALPAPIERTISKPKGRAQTPQVYTIPPPREQMSKKKVSLTCLVTNFFSEAISVEWERNGELEQDYKNTPPILDSDGTYFLYSKLTVDTDSWLQGEIFTCSVVHEALHNHHTQKNLSRSPGK
notes: domain: hinge, and the CH2 and CH3 domains; Used as unpurified supernatant of transfected HEK293-EBNA cells

Assay [1] addresses T1, bovine serum albumin (bovine, UniProt P02769 25-607).
T1 construct: Control coating protein; also called BSA
As to the kind of experiment: ELISA, plate coated with BSA, 50 µl control supernatant, anti-murine Ig-peroxidase detection. Here is the method:
(§1) Interaction analysis was carried out via ELISA. In brief, plates were coated with either recombinant AK155; Knappe, et al., J. Virol 74:3881-7 (2000), incorporated by reference, recombinant human IL-22, or 0.02 μg/ml of bovine serum albumin, and incubated with the test sample overnight at 4° C. The test substance, in all cases, was mixed in 20 mM Tris glycine buffer containing 30 mM NaCl, pH 9.2. After washing in PBS buffer plus Tween 20 (1×10⁻⁴ v/v), plates were blocked with PBS plus 1% BSA for 4 hours. 50 μl of supernatant derived from cells transfected with LICR-2 or with control supernatant referred to supra were added, and the plates were incubated for 2 hours, at 37° C. Bound LICR-2-Ig was detected using anti-murine Ig polyclonal antibodies coupled to peroxidase. The reaction was developed by adding 100 μl of TMB (1.25 mM), followed by 20 μl of H₂SO₄ (2M) to stop the reaction. Absorbance was measured at 450 nm.
Background: In an ELISA, binding on a coated surface is turned into a signal by an enzyme label.

In the assay “LICR-2-Ig” the target is B4. The experiment in a line: ELISA, plate coated with recombinant human IL-22, 50 µl supernatant, anti-murine Ig-peroxidase detection. Here is the method: as §1
For assay [2], the target named is B1. As to the kind of experiment: ELISA, plate coated with recombinant human IL-22, 50 µl control supernatant, anti-murine Ig-peroxidase detection. As for the experimental part: as §1
Assay [3] deals with B1. As to the kind of experiment: ELISA, plate coated with recombinant AK155, 50 µl control supernatant, anti-murine Ig-peroxidase detection. Here is the method: as §1
The target in assay [4] is T1, bovine serum albumin. The experiment in a line: ELISA, plate coated with BSA, 50 µl supernatant, anti-murine Ig-peroxidase detection. Here is the method:
as §1

T1 sequence (P02769 25-607 limits assumed): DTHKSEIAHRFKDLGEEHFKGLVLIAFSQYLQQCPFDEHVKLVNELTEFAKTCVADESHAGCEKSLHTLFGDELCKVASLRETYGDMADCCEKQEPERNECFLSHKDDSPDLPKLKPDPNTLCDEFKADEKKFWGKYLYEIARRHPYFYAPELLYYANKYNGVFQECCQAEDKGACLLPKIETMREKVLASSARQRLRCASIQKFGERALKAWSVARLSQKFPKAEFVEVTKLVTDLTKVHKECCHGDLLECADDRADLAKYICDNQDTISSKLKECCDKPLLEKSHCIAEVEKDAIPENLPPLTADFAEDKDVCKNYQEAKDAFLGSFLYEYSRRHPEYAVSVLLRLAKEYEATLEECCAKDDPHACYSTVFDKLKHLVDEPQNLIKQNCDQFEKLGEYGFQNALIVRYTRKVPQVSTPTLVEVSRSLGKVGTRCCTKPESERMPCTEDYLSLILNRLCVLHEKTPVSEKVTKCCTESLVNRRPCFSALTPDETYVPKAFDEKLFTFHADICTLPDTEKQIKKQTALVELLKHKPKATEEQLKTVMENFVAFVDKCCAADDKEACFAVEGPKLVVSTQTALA

For the molecule B1, in the assay with bovine serum albumin [1], the binding result is “no binding (tested: 0.02 µg/ml BSA (coating))”.

B2: recombinant human IL-22 (ligand, UniProt Q9GZX6 34-179, looked up)
chain: APISSHCRLDKSNFQQPYITNRTFMLAKEASLADNNTDVRLIGEKLFHGVSMSERCYLMKQVLNFTLEEVLFPQSDRFQPYMQEVVPFLARLSNRLSTCHIEGDDLHIQRNVQKLKDTVKKLGESGEIKAIGELDLLFMSLRNACI
notes: also called IL-TIF
For B2, the binding result with LICR-2-Ig and with IL-10R-Ig [2] was “no binding” throughout.

B3: recombinant AK155 (ligand, human, UniProt Q9NPH9 22-171, looked up)
chain: KHKQSSFTKSCYPRGTLSQAVDALYIKAAWLKATIPEDRIKNIRLLKKKTKKQFMKNCQFQEQLLSFFMEDVFGQLQLQGCKKIRFVEDFHSLRQKLSHCISCASSAREMKSITRMKRIFYRIGNKGIYKAISELDILLSWIKKLLESSQ
notes: Coated on the ELISA plate; The assay paragraph says only 'recombinant AK155'
On to B3, for which the binding result with IL-10R-Ig [3] was “no binding”.
With B4, the binding result with bovine serum albumin [4] was “no binding (tested: 0.02 µg/ml BSA (coating))”.

Values taken from US20030158100A1 (LUDWIG INSTITUTE FOR CANCER RESEARCH, published 2003).
